{"source": "patent US20110178020A1", "about": "(UNIVERSITY OF LOUISVILLE RESEARCH FOUNDATION, published 2011)", "molecular_target": "T1, GST-VAMP-2 (VAMP-2 generated as a GST fusion protein, bound to glutathione beads) (UniProt P63027 1-94)", "T1 construct": "not shown: glutathione S-transferase (GST) tag", "T1 sequence (P63027 1-94)": "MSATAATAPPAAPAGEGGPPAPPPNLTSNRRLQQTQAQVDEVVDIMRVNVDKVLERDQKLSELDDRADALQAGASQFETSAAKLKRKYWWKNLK", "assay": "GST pull down, immunoblot for the HA tag"}
{"binder": "TAT-HA-SNAP-23 fusion polypeptide (TAT cell-penetrating polypeptide, hemagglutinin affinity tag, and 78 amino acids from the amino-terminus of human SNAP-23) (other, also called TAT-SNAP-23) MRGSHHHHHHGMASMTGGQQMGRDLYDDDDKDRWGSKLGYGRKKRRQRRRGGSTMSGYPYDVPDYAGSMDNLSSEEIQQRAHQITDESLESTRRILGLAIESQDAGIKTITMLDEQKEQLNRIEEGLDQINKDMRETEKTLTELNK", "values": [{"measurement": "binding result", "value": "no binding"}]}
